{"source": "paper PMC6709672", "about": "(Nature, 2019)", "binders": {"B1": {"name": "NbSmo8 with a C-terminal hexahistidine tag (VHH)", "VHH": "QVQLQESGGGLVQAGGSLRLSCAASGYIFSSYAMGWYRQAPGKEREFVATIGWGTITYYADSVKGRFTISRDNAKNTVYLQMNSLKPEDTAVYYCAAQDLLYYSFPGDHAYWGQGTQVTVSS"}}, "key": {"[1]": {"biological_target": "T1, mouse Smoothened (SMO) residues 64-566, crystallization construct (Mus musculus, UniProt P56726)", "T1 sequence (P56726 64-566)": "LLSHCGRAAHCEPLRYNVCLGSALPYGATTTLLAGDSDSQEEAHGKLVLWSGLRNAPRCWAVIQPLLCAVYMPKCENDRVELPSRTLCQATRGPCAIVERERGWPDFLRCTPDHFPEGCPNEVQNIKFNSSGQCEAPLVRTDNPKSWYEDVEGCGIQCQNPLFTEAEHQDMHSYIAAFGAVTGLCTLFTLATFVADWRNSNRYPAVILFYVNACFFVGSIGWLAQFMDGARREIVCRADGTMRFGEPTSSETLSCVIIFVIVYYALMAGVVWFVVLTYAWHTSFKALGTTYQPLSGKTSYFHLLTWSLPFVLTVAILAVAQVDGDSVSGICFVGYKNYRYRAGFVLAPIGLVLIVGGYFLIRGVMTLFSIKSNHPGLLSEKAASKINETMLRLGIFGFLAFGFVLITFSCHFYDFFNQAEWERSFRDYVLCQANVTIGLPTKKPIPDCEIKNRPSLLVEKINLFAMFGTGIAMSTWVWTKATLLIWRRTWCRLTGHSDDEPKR", "assay": "SPR"}, "[2]": {"biological_target": "T1, mouse Smoothened (SMO) residues 64-566, …", "assay": "SPR", "remark": "listed apart in the source"}}, "note": "Like-named read-outs stand apart in the source and are kept apart here.", "data": [{"binder": "B1", "values": [{"measurement": "Kd", "setting": "[1]", "value": 117, "unit": "nM"}, {"measurement": "Kd", "setting": "[2]", "value": 168, "unit": "nM"}]}]}
